{"source": "paper PMC8835902", "about": "“DNA Polymerase-Parental DNA Interaction Is Essential for Helicase-Polymerase Coupling during Bacteriophage T7 DNA Replication” (International Journal of Molecular Sciences, 2022)", "binders": {"B1": {"name": "T7 gp4 helicase-primase, active site mutant E343Q (enzyme, bacteriophage T7, UniProt P03692 1-566, looked up)", "chain": "MDNSHDSDSVFLYHIPCDNCGSSDGNSLFSDGHTFCYVCEKWTAGNEDTKERASKRKPSGGKPMTYNVWNFGESNGRYSALTARGISKETCQKAGYWIAKVDGVMYQVADYRDQNGNIVSQKVRDKDKNFKTTGSHKSDALFGKHLWNGGKKIVVTEGEIDMLTVMELQDCKYPVVSLGHGASAAKKTCAANYEYFDQFEQIILMFDMDEAGRKAVEEAAQVLPAGKVRVAVLPCKDANECHLNGHDREIMEQVWNAGPWIPDGVVSALSLRERIREHLSSEESVGLLFSGCTGINDKTLGARGGEVIMVTSGSGMGKSTFVRQQALQWGTAMGKKVGLAMLQESVEETAEDLIGLHNRVRLRQSDSLKREIIENGKFDQWFDELFGNDTFHLYDSFAEAETDRLLAKLAYMRSGLGCDVIILDHISIVVSASGESDERKMIDNLMTKLKGFAKSTGVVLVVICHLKNPDKGKAHEEGRPVSITDLRGSGALRQLSDTIIALERNQQGDMPNLVLVRILKCRFTGDTGIAGYMEYNKETGWLEPSSYSGEEESHSESTDWSNDTDF", "notes": "bacteriophage T7 gp4 helicase-primase, full-length, with E343Q; modified pET28a with histidine tags and a PreScission site; Added as 'hexameric EQgp4' in the EMSA; also called EQgp4; E343Q gp4; source: E. coli C3013I (T7 Express lysY/Iq), purified (Histrap, MonoQ)"}}, "key": {"[1]": {"target": "T1, WTgp5-trx complex (T7 gp5 DNA polymerase D5A, E7A with thioredoxin) (bacteriophage T7 | , UniProt P00581 1-704; P0AA25 1-109 = thioredoxin, D5A | E7A)", "T1 construct": "gp5 in pET15b, trxA in pRSFDuet; no tag is mentioned and purification was by heparin and ion exchange; also called DNA-WTgp5; source: E. coli BL21 (DE3), co-expressed, purified (Heparin HP, MonoQ)", "assay": "native gel or EMSA; supershift: 10 nM fork DNA (2 gaps) pre-incubated with gp5-trx variants (60-100 nM) 15 min at 25 °C, then rising amounts of hexameric EQgp4, 15 min at 25 °C; 20 mM Hepes pH 7.5, 1 mM EDTA, 100 mM KCl, 0.1 mM βME, 5% glycerol, 0.10 mg/mL BSA; 4% polyacrylamide gel; fitted to the Hill equation", "settings": "both partners purified"}, "[2]": {"target": "T2, K3Dgp5-trx complex (T7 gp5 K545D, K549D, K553D with thioredoxin) (bacteriophage T7 | , UniProt P00581 1-704; P0AA25 1-109 = thioredoxin, D5A | E7A | K545D | K549D | K553D)", "T2 construct": "bacteriophage T7 gp5 DNA polymerase (D5A, E7A) with the positively charged cleft mutations K545D, K549D, K553D; Mutagenesis on the plasmid encoding WTgp5 (D5A, E7A); also called DNA-K3Dgp5; source: E. coli BL21 (DE3), co-expressed, purified (Heparin HP, MonoQ)", "assay": "native gel or EMSA; supershift: 10 nM fork DNA (2 gaps) pre-incubated with gp5-trx variants (60-100 nM) 15 min at 25 °C, then rising amounts of hexameric EQgp4, 15 min at 25 °C; 20 mM Hepes pH 7.5, 1 mM EDTA, 100 mM KCl, 0.1 mM βME, 5% glycerol, 0.10 mg/mL BSA; 4% polyacrylamide gel; fitted to the Hill equation", "settings": "both partners purified"}}}
{"binder": "B1", "values": [{"measurement": "Kd with fork DNA (gp4 on fork DNA pre-bound to gp5-trx)", "setting": "[1]", "value": "8 ± 1", "unit": "nM"}, {"measurement": "Kd with fork DNA (gp4 on fork DNA pre-bound to gp5-trx)", "setting": "[2]", "value": "6 ± 1", "unit": "nM"}]}
